Reference: the DeepSol protein solubility set

experiment: soluble on expression in E. coli; label from the status in PepcDB or PDB records

Row | Sequence | soluble on expression in E. coli
1 | MGSDKIHHHHHHMIGVRLLVKMSFRSGFRVGRGNETDSTLPTIHSDTIYGAVVYHAFKWSEKAEDFAKKLKVSSLLFVRGDRLLVPKPFLYNTYSLEEDDEESPKELKKASYVFLDKLADYRSIKEASGAVCKENPVEIVRIPRNSLDRITSSSNLYFVEVAFVKEGFTPAFLAEFPDEYEGLFKTAVKSLGDSGIGADSTYGYGLFNAEFESAPDFPEEGEYYLTLSLFVPSAEERSKMNEGYYRVVKRRGVKRDEMKVKKEISYVQEGSVFPFKPEGRGVLKIEDYFVQTSPLCVAFGGDGK | not soluble
2 | MSSARRCLFGRPTPEQRSRTRIWLEDAVKRMRQEESQKWGFDFELETPLPSSAGFVYEVIPENCVPEFYRTKVLTVRTTCSSLDISSTTLTPLSSPSTSDKEEPSLMDPNSSFEDEEEPKKWQFREPPTPRKTPTKRQQKMTDFMAVSRKKNSLSPNKLSPVNVIFTPKSRRPTIRTRSSCSPY | not soluble
3 | MKLPARVFFTLGSRLPCGLAPRRFFSYGTKILYQNTEALQSKFFSPLQKAMLPPNSFQGKVAFITGGGTGLGKGMTTLLSSLGAQCVIASRKMDVLKATAEQISSQTGNKVHAIQCDVRDPDMVQNTVSELIKVAGHPNIVINNAAGNFISPTERLSPNAWKTITDIVLNGTAFVTLEIGKQLIKAQKGAAFLSITTIYAETGSGFVVPSASAKAGVEAMSKSLAAEWGKYGMRFNVIQPGPIKTKGAFSRLDPTGTFEKEMIGRIPCGRLGTVEELANLAAFLCSDYASWINGAVIKFDGGEEVLISGEFNDLRKVTKEQWDTIEELIRKTKGS | soluble
4 | PKYTLHYFPLMGRAELCRFVLAAHGEEFTDRVVEMADWPNLKATMYSNAMPVLDIDGTKMSQSMCIARHLAREFGLDGKTSLEKYRVDEITETLQDIFNDVVKIKFAPEAAKEAVQQNYEKSCKRLAPFLEGLLVSNGGGDGFFVGNSMTLADLHCYVALEVPLKHTPELLKDCPKIVALRKRVAECPKIAAYLKKRPVRDF | soluble
5 | GMSPQSMLTSPQHPRRTTMVISHGTLSASAEHAAHLRQLLVHIAQATRQEDGCLLYLVSEDLSQPGHFLITEHWDNLGAMHTHLALPGVTQAIDALKHLNVTDLKITAYEAGEAINIMG | soluble
6 | MEAIDMPYKITALQPFGVIVEPKHAPIHVNELDIDELRELFLREQLVLLRGFETFEHSEQFADYCERWGEVSVWPFGRVLDLVQKEDPGDHIFDSSYMPMHWDGMYRPQVPEYQIFQCVKAPLPGHGGRTTFSHTMLALQHAPQPDLELWQQVTGHYQRKMEFYHSKTVSPIVMQHPYRDYQVIRYNEPHFEENGDLLNPPDVSLSGITPEQAIEFHKSLRRALYDPRNFYAHEWQTGDIVITDNFSLLHGREAFTSHTPRHIRRVQVLSNPPYNNPSLESYQCPQK | not soluble
7 | MQIEKMKLSDLKAADYNPRVDLKPGMQEYEKLKQSILEFGFVDPPIYNIQTGNLVGGHQRVAVAKELGLFNEIEVSVVDLPLDKEKALNVALNKISGRWDEEKLSILLNELDDEAVNLTGFDTEEVDSLLASFNYEEDIEKPIIEDDFQVNEFIENHHEAKTKLGQLWKLGNHYLLCGDATKLSDVEKLLQGKKANLVVTDPPYNVAVKSDNKELNESGREKIMNDDMSDEEFDQFLMSVFQNYSNAMRDDSAIYVFHGSSYQREFENSMNAAGIVVRSQCIWVKNNATFGWSQYRWQHEPVFYAHKKKQAPSWYGDRKQTTIWQDDLLEDLPATIWKVPRDDVATYYHPTQKPLSLIAIPVRNSSKRQDIVLDLFGGSGSTLMTCEQLNRICYTLELDPLFCDVIIERFEKSTGIIAELVE | not soluble
8 | MNCRGHETRQRIVRDFEVQPKAHIKLLANQQKHSDAGATIEDEYYVFIAESKIDGKKEVIQCCMGAARDFLELINHKGLPLFNPLVGDSHVNNRQEYDNTGSGNL | not soluble
